The record followed here is the Human Domainome abundance scans (Beltran et al. 2025).

B1: RUN and FYVE domain-containing protein 1, residues 639 to 698; numbered along this chain, Q96T51 (parent)
chain: WLKDDEATHCRQCEKEFSISRRKHHCRNCGHIFCNTCSSNELALPSYPKPVRVCDSCHTL
B2: Integrator complex subunit 12, residues 155 to 213; numbered along this chain, Q96CB8 (parent)
chain: AMEMGLACVVCRQMMVASGNQLVECQECHNLYHRDCHKPQVTDKEANDPRLVWYCARCT

± gives the uncertainty stated by the source.

Variants of B1 are the subject of the first data set. The data set can be described thus: abundance fitness (aPCA) (normalised: wild type 0, dead -1); higher = more abundant; growth selection in yeast, the domain comes from the species named. Conditions: Homo sapiens.
Consider WLKFDEATHCRQCEKEFSISRRKHHCRNCGHIFCNTCSSNELALPSYPKPVRVCDSCHTL [D4F], for which the abundance fitness was -0.234 ± 0.058.

In the case of WLKVDEATHCRQCEKEFSISRRKHHCRNCGHIFCNTCSSNELALPSYPKPVRVCDSCHTL [D4V], the abundance fitness is -0.351 ± 0.052.

With WLKPDEATHCRQCEKEFSISRRKHHCRNCGHIFCNTCSSNELALPSYPKPVRVCDSCHTL [D4P], the abundance fitness was -0.494 ± 0.061.

Consider WLKRDEATHCRQCEKEFSISRRKHHCRNCGHIFCNTCSSNELALPSYPKPVRVCDSCHTL [D4R], for which the abundance fitness is -0.22 ± 0.037.

On to WLKHDEATHCRQCEKEFSISRRKHHCRNCGHIFCNTCSSNELALPSYPKPVRVCDSCHTL [D4H], for which the abundance fitness was -0.192 ± 0.097.

As for WLKCDEATHCRQCEKEFSISRRKHHCRNCGHIFCNTCSSNELALPSYPKPVRVCDSCHTL [D4C], the abundance fitness was -0.971 ± 0.17.

In the case of WLKSDEATHCRQCEKEFSISRRKHHCRNCGHIFCNTCSSNELALPSYPKPVRVCDSCHTL [D4S], the abundance fitness is -0.158 ± 0.044.

Take WLKIDEATHCRQCEKEFSISRRKHHCRNCGHIFCNTCSSNELALPSYPKPVRVCDSCHTL [D4I]: the abundance fitness was -0.241 ± 0.058.

For the variant YLKDDEATHCRQCEKEFSISRRKHHCRNCGHIFCNTCSSNELALPSYPKPVRVCDSCHTL [W1Y], the abundance fitness turned out to be 0.311 ± 0.084.

Turning to ALKDDEATHCRQCEKEFSISRRKHHCRNCGHIFCNTCSSNELALPSYPKPVRVCDSCHTL [W1A], the abundance fitness was -0.014 ± 0.17.

For the variant ELKDDEATHCRQCEKEFSISRRKHHCRNCGHIFCNTCSSNELALPSYPKPVRVCDSCHTL [W1E], the abundance fitness is -0.138 ± 0.1.

Turning to KLKDDEATHCRQCEKEFSISRRKHHCRNCGHIFCNTCSSNELALPSYPKPVRVCDSCHTL [W1K], the abundance fitness is 0.249 ± 0.1.

On to SLKDDEATHCRQCEKEFSISRRKHHCRNCGHIFCNTCSSNELALPSYPKPVRVCDSCHTL [W1S], for which the abundance fitness was determined as 0.121 ± 0.07.

Consider VLKDDEATHCRQCEKEFSISRRKHHCRNCGHIFCNTCSSNELALPSYPKPVRVCDSCHTL [W1V], for which the abundance fitness is -0.005 ± 0.055.

As for NLKDDEATHCRQCEKEFSISRRKHHCRNCGHIFCNTCSSNELALPSYPKPVRVCDSCHTL [W1N], the abundance fitness came out at 0.251 ± 0.099.

CLKDDEATHCRQCEKEFSISRRKHHCRNCGHIFCNTCSSNELALPSYPKPVRVCDSCHTL [W1C]: the abundance fitness came to 0.094 ± 0.075.

As for MLKDDEATHCRQCEKEFSISRRKHHCRNCGHIFCNTCSSNELALPSYPKPVRVCDSCHTL [W1M], the abundance fitness is 0.253 ± 0.057.

Take RLKDDEATHCRQCEKEFSISRRKHHCRNCGHIFCNTCSSNELALPSYPKPVRVCDSCHTL [W1R]: the abundance fitness is -0.182 ± 0.077.

With GLKDDEATHCRQCEKEFSISRRKHHCRNCGHIFCNTCSSNELALPSYPKPVRVCDSCHTL [W1G], the abundance fitness came out at 0.131 ± 0.067.

As for DLKDDEATHCRQCEKEFSISRRKHHCRNCGHIFCNTCSSNELALPSYPKPVRVCDSCHTL [W1D], the abundance fitness worked out at 0.445 ± 0.13.

In the case of FLKDDEATHCRQCEKEFSISRRKHHCRNCGHIFCNTCSSNELALPSYPKPVRVCDSCHTL [W1F], the abundance fitness is -0.106 ± 0.14.

For the variant LLKDDEATHCRQCEKEFSISRRKHHCRNCGHIFCNTCSSNELALPSYPKPVRVCDSCHTL [W1L], the abundance fitness is -0.05 ± 0.064.

As to TLKDDEATHCRQCEKEFSISRRKHHCRNCGHIFCNTCSSNELALPSYPKPVRVCDSCHTL [W1T], the abundance fitness was -0.286 ± 0.19.

Turning to WLIDDEATHCRQCEKEFSISRRKHHCRNCGHIFCNTCSSNELALPSYPKPVRVCDSCHTL [K3I], the abundance fitness was -0.393 ± 0.09.

In the case of WLVDDEATHCRQCEKEFSISRRKHHCRNCGHIFCNTCSSNELALPSYPKPVRVCDSCHTL [K3V], the abundance fitness was -0.687 ± 0.06.

For the variant WLGDDEATHCRQCEKEFSISRRKHHCRNCGHIFCNTCSSNELALPSYPKPVRVCDSCHTL [K3G], the abundance fitness was -0.515 ± 0.051.

Take WLEDDEATHCRQCEKEFSISRRKHHCRNCGHIFCNTCSSNELALPSYPKPVRVCDSCHTL [K3E]: the abundance fitness was -0.475 ± 0.061.

On to WLCDDEATHCRQCEKEFSISRRKHHCRNCGHIFCNTCSSNELALPSYPKPVRVCDSCHTL [K3C], for which the abundance fitness is -1.03 ± 0.12.

Regarding WLADDEATHCRQCEKEFSISRRKHHCRNCGHIFCNTCSSNELALPSYPKPVRVCDSCHTL [K3A], the abundance fitness is -0.602 ± 0.066.

In the case of WLMDDEATHCRQCEKEFSISRRKHHCRNCGHIFCNTCSSNELALPSYPKPVRVCDSCHTL [K3M], the abundance fitness is -0.431 ± 0.073.

Regarding WLPDDEATHCRQCEKEFSISRRKHHCRNCGHIFCNTCSSNELALPSYPKPVRVCDSCHTL [K3P], the abundance fitness was -0.906 ± 0.11.

For WLQDDEATHCRQCEKEFSISRRKHHCRNCGHIFCNTCSSNELALPSYPKPVRVCDSCHTL [K3Q], the abundance fitness is -0.664 ± 0.095.

Regarding WLSDDEATHCRQCEKEFSISRRKHHCRNCGHIFCNTCSSNELALPSYPKPVRVCDSCHTL [K3S], the abundance fitness is -0.55 ± 0.057.

Consider WLLDDEATHCRQCEKEFSISRRKHHCRNCGHIFCNTCSSNELALPSYPKPVRVCDSCHTL [K3L], for which the abundance fitness was -0.607 ± 0.061.

Turning to WLFDDEATHCRQCEKEFSISRRKHHCRNCGHIFCNTCSSNELALPSYPKPVRVCDSCHTL [K3F], the abundance fitness is -1.14 ± 0.16.

As for WLNDDEATHCRQCEKEFSISRRKHHCRNCGHIFCNTCSSNELALPSYPKPVRVCDSCHTL [K3N], the abundance fitness is -0.133 ± 0.052.

Take WLHDDEATHCRQCEKEFSISRRKHHCRNCGHIFCNTCSSNELALPSYPKPVRVCDSCHTL [K3H]: the abundance fitness was -0.42 ± 0.089.

For the variant WLYDDEATHCRQCEKEFSISRRKHHCRNCGHIFCNTCSSNELALPSYPKPVRVCDSCHTL [K3Y], the abundance fitness was -0.529 ± 0.081.

As to WLDDDEATHCRQCEKEFSISRRKHHCRNCGHIFCNTCSSNELALPSYPKPVRVCDSCHTL [K3D], the abundance fitness is -0.539 ± 0.097.

In the case of WLRDDEATHCRQCEKEFSISRRKHHCRNCGHIFCNTCSSNELALPSYPKPVRVCDSCHTL [K3R], the abundance fitness was -0.618 ± 0.055.

Another data set covers variants of B2. Described as above. Conditions: Homo sapiens.
In the case of AMEYGLACVVCRQMMVASGNQLVECQECHNLYHRDCHKPQVTDKEANDPRLVWYCARCT [M4Y], the abundance fitness was -0.168 ± 0.036.

Turning to AMEMGLACVVCRQMMVDSGNQLVECQECHNLYHRDCHKPQVTDKEANDPRLVWYCARCT [A17D], the abundance fitness was -0.211 ± 0.044.

Turning to AMEMGLACVVCRQMMVASGNQLVECQECHNLYHRDCHKPQVTDKEANDPRLGWYCARCT [V52G], the abundance fitness stood at 0.023 ± 0.051.

As for AMEMGLACVVCRQMMVASGNQLVECQECHNLYHRDCHKPQVTDKEANDPRYVWYCARCT [L51Y], the abundance fitness was -0.169 ± 0.071.

Take AMEMGLACVVCRQMMVASGNQLVECQECHNLYHRDCHKPQVTDKEANDPRLVWYCARCY [T59Y]: the abundance fitness was -0.218 ± 0.21.
